Source: article PMC5450235, “Predicting the targeting of tail-anchored proteins to subcellular compartments in mammalian cells” (Journal of Cell Science, 2017)
No end group written: not given here. *: point of attachment. FITC = O=C1OC2(c3ccc(O)cc3Oc3cc(O)ccc32)c2ccc(NC(=S)*)cc21

T1: recombinant full-length human PEX19 (human, UniProt P40855 1-299)
T1 construct: PEX19, human, full length, cloned into pETM11; also called recombinant PEX19
T1 sequence (looked up): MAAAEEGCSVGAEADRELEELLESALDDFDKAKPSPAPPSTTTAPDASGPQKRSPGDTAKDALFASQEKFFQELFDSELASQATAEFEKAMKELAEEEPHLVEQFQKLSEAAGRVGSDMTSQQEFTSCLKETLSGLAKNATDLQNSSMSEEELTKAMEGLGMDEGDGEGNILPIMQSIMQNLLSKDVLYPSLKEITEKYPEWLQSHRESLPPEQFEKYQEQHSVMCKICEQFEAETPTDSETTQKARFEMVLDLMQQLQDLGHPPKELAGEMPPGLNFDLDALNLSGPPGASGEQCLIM

B1: FITC-labelled peptide ACBD5 MUT2 (peptide)
peptide: {FITC}-SPGVLTFAIIWPFIAQWLVYLYYQAAAAKL
notes: the C-terminal asparagine was removed; also called MUT2 peptide; source: synthetic peptide (Genscript)
B2: FITC-labelled peptide ACBD5 WT (peptide)
peptide: {FITC}-SPGVLTFAIIWPFIAQWLVYLYYQRRRRKL
notes: TMD and tail region of ACBD5; the C-terminal asparagine residue was removed to facilitate peptide synthesis; also called ACBD5-TMD-T WT peptide; source: synthetic peptide (Genscript)
B3: FITC-labelled peptide ACBD5 MUT1 (peptide)
peptide: {FITC}-SPGVLTFAIIWPFIAQWLVYLYYQRARAKL
notes: the C-terminal asparagine was removed; also called MUT1 peptide; peptide MUT1; source: synthetic peptide (Genscript)

Biological target: T1, recombinant full-length human PEX19
Experiment: fluorescence polarisation; fluorescence anisotropy; FITC peptide at 6.7 nM, protein titrated (dilution series, factor 1.5); 25°C; 50 mM Tris-HCl pH 7.5, 250 mM NaCl, 0.5 mM TCEP with 0.67 mg/ml BSA, no detergent; 1:1 hyperbolic fit
Settings: both partners purified

Row | Kd [nM] | Binder
1 | 7700 | B1
2 | 900 | B2
3 | 1900 | B3
